Results reported in patent US20140011735A1, “ANTIVIRAL COMPOSITION” (AMRITA THERAPEUTICS LIMITED, priority 2011, published 2014).

Legend:
[1] = tested on: HIV-1 virus, three clades (European, Indian and African origin); details: three clades of HIV-1; due to interference in entry of HIV-1 to host cells; cited from earlier work
[2] = tested on: HIV-1 NL4-3; assay: Inhibition of HIV-1 NL4-3 replication in peripheral blood lymphocytes (p24 antigen ELISA); assay type: cell-based; details: FIG. 2, similar to Enfuvirtide (T20)
[3] = tested on: HIV-1 Env SF162 mediated fusion of HeLa effector cells with HEK293-CCR5 target cells expressing human CD4; assay type: cell-based; details: β-Gal activity at 570 nm after 2.5 h at 37° C.; FIG. 4

B1: azurin: 128 amino acid P. aeruginosa protein with anticancer, anti-HIV-1 and antiparasitic activity (protein, UniProt P00282 21-148, looked up)
Azurin: AECSVDIQGNDQMQFNTNAITVDKSCKQFTVNLSHPGNLPKNVMGHNWVLSTAADMQGVVTDGMASGLDKDYLKPDDSRVIAHTKLIGSGEKDSVTFDVSKLKEGEQYMFFCTFPGHSALMKGTLTLK
- growth inhibition of HIV-1 [1]: ≥ 90%

B2: MPT63 (protein, UniProt P9WIP1 30-159, looked up)
Immunogenic protein MPT63: AYPITGKLGSELTMTDTVGQVVLGWKVSDLKSSTAVIPGYPVAGQVWEATATVNAIRGSVTPAVSQFNARTADGINYRVLWQAAGPDTISGATIPQGEQSTGKIYFDVTGPSPTIVAMNNGMEDLLIWEP
- EC50 [2]: 0.01 nM
- inhibition of cell to cell fusion compared to positive control Enfuvirtide (T20) [3]: more inhibition of cell to cell fusion
